Source: paper PMC11132685

Assays:
Assay in all cases: SEC-MALS; purified NACHOs; oligomeric state; conditions not given
[1] = biological target: tetrabrachion-stabilised recombinant N2 NA (NACHO) of A/POLAND/19B/2017 (not stated | influenza A virus (H3N2) A/POLAND/19B/2017)
[2] = biological target: tetrabrachion-stabilised recombinant N2 NA (NACHO) of A/MINNESOTA/11/2010 (not stated | influenza A virus (H3N2) A/MINNESOTA/11/2010)
[3] = biological target: tetrabrachion-stabilised recombinant N2 NA (NACHO) of A/TASMANIA/1018/2015 (not stated | influenza A virus (H3N2) A/TASMANIA/1018/2015)
[4] = biological target: tetrabrachion-stabilised recombinant N2 NA (NACHO) of A/STOCKHOLM/15/2014 (not stated | influenza A virus (H3N2) A/STOCKHOLM/15/2014)
[5] = biological target: tetrabrachion-stabilised recombinant N2 NA (NACHO) of A/ALASKA/251/2015 (not stated | influenza A virus (H3N2) A/ALASKA/251/2015)
[6] = biological target: tetrabrachion-stabilised recombinant N2 NA (NACHO) of A/HOKKAIDO/10H079/2011 (not stated | influenza A virus (H3N2) A/HOKKAIDO/10H079/2011)
[7] = biological target: tetrabrachion-stabilised recombinant N2 NA (NACHO) of A/NAGANO/2153/2017 (not stated | influenza A virus (H3N2) A/NAGANO/2153/2017)
[8] = biological target: tetrabrachion-stabilised recombinant N2 NA (NACHO) of A/HELSINKI/941/2013 (not stated | influenza A virus (H3N2) A/HELSINKI/941/2013)
[9] = biological target: tetrabrachion-stabilised recombinant N2 NA (NACHO) of A/INDIANA/18/2017 (not stated | influenza A virus (H3N2) A/INDIANA/18/2017)
[10] = biological target: tetrabrachion-stabilised recombinant N2 NA (NACHO) of A/HEILONGJIANGXIANGYANG/1134/2011 (not stated | influenza A virus (H3N2) A/HEILONGJIANGXIANGYANG/1134/2011)
[11] = biological target: tetrabrachion-stabilised recombinant N2 NA (NACHO) of A/GAMBIA/G0071436/2012 (not stated | influenza A virus (H3N2) A/GAMBIA/G0071436/2012)
[12] = biological target: tetrabrachion-stabilised recombinant N2 NA (NACHO) of A/INDIANA/08/2011 (not stated | influenza A virus (H3N2) A/INDIANA/08/2011)
[13] = biological target: tetrabrachion-stabilised recombinant N2 NA (NACHO) of A/WISCONSIN/16/2015 (not stated | influenza A virus (H3N2) A/WISCONSIN/16/2015)
[14] = biological target: tetrabrachion-stabilised recombinant N2 NA (NACHO) of A/STOCKHOLM/32/2014 (not stated | influenza A virus (H3N2) A/STOCKHOLM/32/2014)
[15] = biological target: tetrabrachion-stabilised recombinant N2 NA (NACHO) of A/NEWCALEDONIA/23/2016 (not stated | influenza A virus (H3N2) A/NEWCALEDONIA/23/2016)
[16] = biological target: tetrabrachion-stabilised recombinant N2 NA (NACHO) of A/PORTOALEGRE/LACENRS2376/2014 (not stated | influenza A virus (H3N2) A/PORTOALEGRE/LACENRS2376/2014)
[17] = biological target: tetrabrachion-stabilised recombinant N2 NA (NACHO) of A/HONGKONG/3089/2017 (not stated | influenza A virus (H3N2) A/HONGKONG/3089/2017)
[18] = biological target: tetrabrachion-stabilised recombinant N2 NA (NACHO) of A/PERTH/16/2009 (not stated | influenza A virus (H3N2) A/PERTH/16/2009)
[19] = biological target: tetrabrachion-stabilised recombinant N2 NA (NACHO) of A/UTAH/11/2011 (not stated | influenza A virus (H3N2) A/UTAH/11/2011)
[20] = biological target: tetrabrachion-stabilised recombinant N2 NA (NACHO) of A/OHIO/13/2017 (not stated | influenza A virus (H3N2) A/OHIO/13/2017)
[21] = biological target: tetrabrachion-stabilised recombinant N2 NA (NACHO) of A/HANOI/ELI15597/2015 (not stated | influenza A virus (H3N2) A/HANOI/ELI15597/2015)
[22] = biological target: tetrabrachion-stabilised recombinant N2 NA (NACHO) of A/XINJ…/1411/2012 (not stated | influenza A virus (H3N2) A/XINJ…/1411/2012)
[23] = biological target: tetrabrachion-stabilised recombinant N2 NA (NACHO) of A/TEHRAN/996/2012 (not stated | influenza A virus (H3N2) A/TEHRAN/996/2012)
[24] = biological target: tetrabrachion-stabilised recombinant N2 NA (NACHO) of A/DAKAR/14/2014 (not stated | influenza A virus (H3N2) A/DAKAR/14/2014)
[25] = biological target: tetrabrachion-stabilised recombinant N2 NA (NACHO) of A/OHIO/62/2012 (not stated | influenza A virus (H3N2) A/OHIO/62/2012)
[26] = biological target: tetrabrachion-stabilised recombinant N2 NA (NACHO) of A/SWEDEN/3/2017 (not stated | influenza A virus (H3N2) A/SWEDEN/3/2017)
[27] = biological target: tetrabrachion-stabilised recombinant N2 NA (NACHO) of A/HELSINKI/823/2013 (not stated | influenza A virus (H3N2) A/HELSINKI/823/2013)
[28] = biological target: tetrabrachion-stabilised recombinant N2 NA (NACHO) of A/SWITZERLAND/9715293/2013 (not stated | influenza A virus (H3N2) A/SWITZERLAND/9715293/2013)
[29] = biological target: tetrabrachion-stabilised recombinant N2 NA (NACHO) of A/ESTONIA/91621/2015 (not stated | influenza A virus (H3N2) A/ESTONIA/91621/2015)
[30] = biological target: tetrabrachion-stabilised recombinant N2 NA (NACHO) of A/ONTARIO/RV3236/2016 (not stated | influenza A virus (H3N2) A/ONTARIO/RV3236/2016)

“tetrabrachion-stabilised recombinant N2 NA (NACHO) of A/POLAND/19B/2017 (enzyme)” was tested, and the stoichiometry N [1] was 4.
“tetrabrachion-stabilised recombinant N2 NA (NACHO) of A/MINNESOTA/11/2010 (enzyme)” was tested, and the stoichiometry N [2] was 4.
With “tetrabrachion-stabilised recombinant N2 NA (NACHO) of A/TASMANIA/1018/2015 (enzyme)” the stoichiometry N [3] was 4.
“tetrabrachion-stabilised recombinant N2 NA (NACHO) of A/STOCKHOLM/15/2014 (enzyme)” was tested, and the stoichiometry N [4] was 4.
With “tetrabrachion-stabilised recombinant N2 NA (NACHO) of A/ALASKA/251/2015 (enzyme)” the stoichiometry N [5] was 4.
“tetrabrachion-stabilised recombinant N2 NA (NACHO) of A/HOKKAIDO/10H079/2011 (enzyme)” gave a stoichiometry N [6] of 4.
For “tetrabrachion-stabilised recombinant N2 NA (NACHO) of A/NAGANO/2153/2017 (enzyme)”, the stoichiometry N [7] was 4.
In the case of “tetrabrachion-stabilised recombinant N2 NA (NACHO) of A/HELSINKI/941/2013 (enzyme)”, the stoichiometry N [8] was 4.
With “tetrabrachion-stabilised recombinant N2 NA (NACHO) of A/INDIANA/18/2017 (enzyme)” the stoichiometry N [9] was 4.
Substance “tetrabrachion-stabilised recombinant N2 NA (NACHO) of A/HEILONGJIANGXIANGYANG/1134/2011 (enzyme)” has a stoichiometry N [10] of 4.
In the case of “tetrabrachion-stabilised recombinant N2 NA (NACHO) of A/GAMBIA/G0071436/2012 (enzyme)”, the stoichiometry N [11] was 4.
Substance “tetrabrachion-stabilised recombinant N2 NA (NACHO) of A/INDIANA/08/2011 (enzyme)” has a stoichiometry N [12] of 4.
In the case of “tetrabrachion-stabilised recombinant N2 NA (NACHO) of A/WISCONSIN/16/2015 (enzyme)”, the stoichiometry N [13] was 4.
With “tetrabrachion-stabilised recombinant N2 NA (NACHO) of A/STOCKHOLM/32/2014 (enzyme)” the stoichiometry N [14] was 4.
For “tetrabrachion-stabilised recombinant N2 NA (NACHO) of A/NEWCALEDONIA/23/2016 (enzyme)”, the stoichiometry N [15] was 4.
“tetrabrachion-stabilised recombinant N2 NA (NACHO) of A/PORTOALEGRE/LACENRS2376/2014 (enzyme)” was tested, and the stoichiometry N [16] was 4.
“tetrabrachion-stabilised recombinant N2 NA (NACHO) of A/HONGKONG/3089/2017 (enzyme)” showed a stoichiometry N [17] of 4.
With “tetrabrachion-stabilised recombinant N2 NA (NACHO) of A/PERTH/16/2009 (enzyme)” the stoichiometry N [18] was 4.
“tetrabrachion-stabilised recombinant N2 NA (NACHO) of A/UTAH/11/2011 (enzyme)” gave a stoichiometry N [19] of 4.
For “tetrabrachion-stabilised recombinant N2 NA (NACHO) of A/OHIO/13/2017 (enzyme)”, the stoichiometry N [20] was 4.
“tetrabrachion-stabilised recombinant N2 NA (NACHO) of A/HANOI/ELI15597/2015 (enzyme)” showed a stoichiometry N [21] of 4.
Work on “tetrabrachion-stabilised recombinant N2 NA (NACHO) of A/XINJ…/1411/2012 (enzyme)” yielded a stoichiometry N [22] of 4.
For “tetrabrachion-stabilised recombinant N2 NA (NACHO) of A/TEHRAN/996/2012 (enzyme)”, the stoichiometry N [23] was 4.
Substance “tetrabrachion-stabilised recombinant N2 NA (NACHO) of A/DAKAR/14/2014 (enzyme)” has a stoichiometry N [24] of 4.
For “tetrabrachion-stabilised recombinant N2 NA (NACHO) of A/OHIO/62/2012 (enzyme)”, the stoichiometry N [25] was 4.
Work on “tetrabrachion-stabilised recombinant N2 NA (NACHO) of A/SWEDEN/3/2017 (enzyme)” yielded a stoichiometry N [26] of 4.
“tetrabrachion-stabilised recombinant N2 NA (NACHO) of A/HELSINKI/823/2013 (enzyme)” was tested, and the stoichiometry N [27] was 4.
Work on “tetrabrachion-stabilised recombinant N2 NA (NACHO) of A/SWITZERLAND/9715293/2013 (enzyme)” yielded a stoichiometry N [28] of 4.
For “tetrabrachion-stabilised recombinant N2 NA (NACHO) of A/ESTONIA/91621/2015 (enzyme)”, the stoichiometry N [29] was 4.
In the case of “tetrabrachion-stabilised recombinant N2 NA (NACHO) of A/ONTARIO/RV3236/2016 (enzyme)”, the stoichiometry N [30] was 4.
